Measurements taken from patent US20040076601A1, “Pharmaceutical form comprising a cell regulating factor and/or a cell proliferation promoter” (priority 2000, published 2004).

What was measured:
BP-A31 cells = assay: Stability of the biological activity of FGF-2 after storage at 4° C., MTT assay (Example 4); format: cell-based, mouse; settings: MTT assay 24 h, FIG. 1
Description: The materials used are on the one hand the three pharmaceutical forms of Example 3, in which the support material consists of different proportions by weight of methylidene malonate oligomers and polymers, and on the other hand free (non-formulated) FGF-2. After storage of the 3 pharmaceutical forms and the free FGF-2 for 7, 14 and 21 days at 4° C., the stimulating activity on cell proliferation is measured by the MTT assay described in Example 2 for 24 h compared with a control culture with no growth factor added.
The results are shown graphically in FIG. 1, in which the storage time at 4° C., expressed in days, is plotted on the abscissa and the percentage proliferation is plotted on the ordinate.

BP-A31 fibroblasts = assay: MTT proliferation assay of form containing SPC (Example 7); format: cell-based, mouse; settings: BP-A31 fibroblasts over 24 h vs untreated control; 3.1% added to the well, final theoretical SPC concentration 15 μM
Description: SPC was formulated in a support material containing 60% by weight of methylidene malonate oligomer and 40% by weight of methylidene malonate polymer prepared from 1-ethoxycarbonyl-1-ethoxycarbonylmethyleneoxycarbonylethene monomer (100 μg of SPC formulated per 40 mg of material, as described in Example 2). The pharmaceutical form according to the invention, containing SPC or its control solvent, was then brought into contact with BP-A31 fibroblasts according to the protocol described in Example 1. The effect of adding 3.1% to the well, generating a final theoretical SPC concentration of 15 μM, is shown here. The stimulation of cell proliferation was quantified by the MTT assay. The results, expressed as the percentage proliferation of the cells over 24 h compared with an untreated control culture, are reported in Table 6 below.

| Compound | stability of biological activity on storage (BP-A31 cells) | Proliferation (%) (BP-A31 fibroblasts) |
| --- | --- | --- |
| free (non-formulated) FGF-2: free (non-formulated) basic fibroblast growth factor, human recombinant FGF-2 | rapidly losing its biological activity (after 7 days) | – |
| CCCCCCCCCCCCC/C=C/[C@@H](O)[C@@H](N)COP(=O)([O-])OCC[N+](C)(C)C [Free SPC, sphingosylphosphorylcholine] | – | 158.8 ± 3.2% |
